{
  "source": "patent US20150087596A1",
  "key": {"[1]": {"molecular_target": "human Nav1.7 (sodium channel protein type 9 subunit alpha) (human) (UniProt Q15858)", "test": "cell-based or functional assay"}, "[2]": {"molecular_target": "human Nav1.2 (sodium channel protein type 2 subunit alpha) (human) (UniProt Q99250)", "test": "cell-based or functional assay"}},
  "data": [
    {"substance": "recombinant Huwentoxin-IV (peptide)", "values": [
      {"measurement": "IC50, veratridine-induced depolarization inhibition assay", "setting": "[1]", "result": 159, "unit": "nM"},
      {"measurement": "ratio of IC50 for Nav1.2 to IC50 for Nav1.7", "setting": "[1]", "result": 2.14},
      {"measurement": "IC50, veratridine-induced depolarization inhibition assay", "setting": "[2]", "result": 342, "unit": "nM"}
    ]}
  ]
}
